Test results reported in patent publication US20030198957.

In the case of “human NOV8 (EDSP, Endothelial Dual Specificity Phosphatase domain-containing protein)”, the “in vitro phosphorylation (dephosphorylation) assay” value (from here on “in vitro phosphorylation”) (JNK) is reported as “can dephosphorylate ERK and JNK”, the “in vitro phosphorylation” value (P38 MAP kinase) is reported as “has little activity on P38 MAP kinase” and the “in vitro phosphorylation” value (ERK) is reported as “can dephosphorylate ERK and JNK”.
